Reference: paper PMC10663143, “CALEOSIN 1 interaction with AUTOPHAGY-RELATED PROTEIN 8 facilitates lipid droplet microautophagy in seedlings” (Plant Physiology, 2023)

Target: T1, CALEOSIN 2 (CLO2), Cub fusion (Arabidopsis thaliana, UniProt Q9FLN9 1-243)
T1 construct: CALEOSIN 2 of Arabidopsis thaliana; the coding region was amplified and inserted into pMetYCgate; Bait; source: yeast split-ubiquitin fusion (pMetYCgate, S. cerevisiae THY.AP4)
Assay: two-hybrid; mating-based split-ubiquitin system in yeast; Cub fusions as bait, NubG fusions as prey; quantitative β-galactosidase assay (Beta-Glo), activity normalized to a reference pair
Details: partners not purified

T1 sequence (Q9FLN9 whole entry, the tested form may be a part): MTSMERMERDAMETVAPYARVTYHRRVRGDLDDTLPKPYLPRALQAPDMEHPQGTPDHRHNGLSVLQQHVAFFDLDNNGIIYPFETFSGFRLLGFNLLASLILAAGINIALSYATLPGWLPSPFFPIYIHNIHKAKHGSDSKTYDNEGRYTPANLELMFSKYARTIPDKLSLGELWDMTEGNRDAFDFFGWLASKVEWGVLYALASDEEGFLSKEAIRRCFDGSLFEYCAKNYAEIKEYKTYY

B1: AUTOPHAGY-RELATED PROTEIN 8b (ATG8b), NubG fusion (natural protein, Arabidopsis thaliana, UniProt Q9XEB5 1-117, looked up)
chain: MEKNSFKLSNPLEMRMAESTRIRAKYPERVPVIVEKAGQSDVPDIDKKKYLVPADLTIGQFVYVVRKRIKLGAEKAIFVFVKNTLPPTAALMSAIYEEHKDEDGFLYMTYSGENTFG
notes: AUTOPHAGY-RELATED PROTEIN 8b of Arabidopsis thaliana; the coding region was amplified and inserted into pNXgate32-3HA; Prey; source: yeast split-ubiquitin fusion (pNXgate32-3HA, S. cerevisiae THY.AP5)
fold weaker β-galactosidase activity than with CLO1, CLO3 and OLE1: 2 fold
